Measured values taken from patent publication US20250129135A1, “Multi-Agonist and Use Thereof” (priority 2021, published 2025).
Substitutions are numbered along the chain they refer to.

T1: human GIP receptor (human, UniProt P48546 22-466)
T1 sequence (looked up): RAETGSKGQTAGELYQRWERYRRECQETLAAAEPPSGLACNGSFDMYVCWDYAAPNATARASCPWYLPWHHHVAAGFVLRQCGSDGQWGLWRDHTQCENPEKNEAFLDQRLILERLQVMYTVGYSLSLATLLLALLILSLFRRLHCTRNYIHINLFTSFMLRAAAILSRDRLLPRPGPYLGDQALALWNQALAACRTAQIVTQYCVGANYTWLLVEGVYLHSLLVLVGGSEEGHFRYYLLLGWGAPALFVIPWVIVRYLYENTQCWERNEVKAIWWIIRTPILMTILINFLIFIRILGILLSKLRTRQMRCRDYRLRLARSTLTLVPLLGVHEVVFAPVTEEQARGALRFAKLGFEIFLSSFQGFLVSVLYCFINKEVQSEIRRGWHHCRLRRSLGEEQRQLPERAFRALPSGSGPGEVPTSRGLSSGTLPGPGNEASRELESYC

B1: Compound 31 (peptide)
peptide: YXQGTXTSDYSIXLDKKAQXAFIEFLLEXHPSSGAPPXS
modifications: Aib at 2; αMeF(2F) at 6; αMeL at 13; Lys 17 side chain AEEAc-AEEAc-γGlu-CO(CH2)18COOH; Aib at 20; Aib at 29; Ac3c at 38; C-terminal amide (NH2)
B2: Compound 35 (peptide)
peptide: B1 peptide with F25Y, X29T, H30G, A35Q
modifications: Aib at 2; αMeF at 6; αMeL at 13; Lys 17 side chain AEEAc-AEEAc-γGlu-CO(CH2)18COOH; Aib at 20; Ac3c at 38; C-terminal amide (NH2)
B3: Compound 41 (peptide)
peptide: B1 peptide with X13L, X29S, G34X, A35H
modifications: Aib at 2; αMeF(2F) at 6; Lys 17 side chain AEEAc-AEEAc-γGlu-CO(CH2)18COOH; Aib at 20; Aib at 34; Ac3c at 38; C-terminal amide (NH2)
B4: Compound 40 (peptide)
peptide: B1 peptide with X29S, G34X, A35H
modifications: Aib at 2; αMeF(2F) at 6; αMeL at 13; Lys 17 side chain AEEAc-AEEAc-γGlu-CO(CH2)18COOH; Aib at 20; Aib at 34; Ac3c at 38; C-terminal amide (NH2)
B5: Compound 32 (peptide)
peptide: B1 peptide with X13F, F25Y
modifications: Aib at 2; αMeF(2F) at 6; Lys 17 side chain AEEAc-AEEAc-γGlu-CO(CH2)18COOH; Aib at 20; Aib at 29; Ac3c at 38; C-terminal amide (NH2)
B6: Compound 33 (peptide)
peptide: B1 peptide with X29S, G34X, A35H
modifications: Aib at 2; αMeF at 6; αMeL at 13; Lys 17 side chain AEEAc-AEEAc-γGlu-CO(CH2)18COOH; Aib at 20; Aib at 34; Ac3c at 38; C-terminal amide (NH2)
B7: Compound 34 (peptide)
peptide: B1 peptide with F25Y, X29T, H30G, A35Q
modifications: Aib at 2; αMeF(2F) at 6; αMeL at 13; Lys 17 side chain AEEAc-AEEAc-γGlu-CO(CH2)18COOH; Aib at 20; Ac3c at 38; C-terminal amide (NH2)
B8: Compound 36 (peptide)
peptide: YXQGTXTSDYSIXLDKKAQXAFIEFLLEGGPSSXHPPPS
modifications: Aib at 2; αMeF at 6; αMeL at 13; Lys 17 side chain AEEAc-AEEAc-γGlu-CO(CH2)18COOH; Aib at 20; Aib at 34; C-terminal amide (NH2)
B9: Compound 39 (peptide)
peptide: B8 peptide with G29T, G30R
modifications: Aib at 2; αMeF(2F) at 6; αMeL at 13; Lys 17 side chain AEEAc-AEEAc-γGlu-CO(CH2)18COOH; Aib at 20; Aib at 34; C-terminal amide (NH2)
B10: Compound 37 (peptide)
peptide: B8 peptide with G30R
modifications: Aib at 2; αMeF at 6; αMeL at 13; Lys 17 side chain AEEAc-AEEAc-γGlu-CO(CH2)18COOH; Aib at 20; Aib at 34; C-terminal amide (NH2)

biological target: T1, human GIP receptor; experiment: cell-based or functional assay

Row | Binder | cAMP Rel. A (%) against human GIP, human GIP R cells | cAMP EC50, CHO cells stably overexpressing human GIP R
1 | B1 | 2010% | –
2 | B2 | 2260% | 0.008 nM
3 | B3 | 248% | 0.073 nM
4 | B4 | 151% | 0.12 nM
5 | B5 | 1650% | 0.011 nM
6 | B6 | 2260% | 0.008 nM
7 | B7 | 3620% | 0.005 nM
8 | B8 | 2590% | –
9 | B9 | 1210% | 0.015 nM
10 | B10 | 1210% | 0.015 nM

biological target: human GLP-1 receptor (human, UniProt P43220 24-463); experiment: cell-based or functional assay

Row | Binder | cAMP EC50, HEK-293 cells stably overexpressing human GLP-1 R | cAMP Rel. A (%) against human GLP-1 (7-37), human GLP-1 R cells
11 | B1 | 0.012 nM | 367%
12 | B2 | 0.022 nM | 200%
13 | B3 | 0.012 nM | 367%
14 | B4 | 0.016 nM | 275%
15 | B5 | 0.014 nM | 314%
16 | B6 | 0.019 nM | 232%
17 | B7 | 0.023 nM | 191%
18 | B8 | 0.025 nM | 176%
19 | B9 | 0.078 nM | 56.4%
20 | B10 | 0.028 nM | 157%

biological target: human GCG receptor (human, UniProt P47871 26-477); experiment: cell-based or functional assay
Sequence (P47871 26-477): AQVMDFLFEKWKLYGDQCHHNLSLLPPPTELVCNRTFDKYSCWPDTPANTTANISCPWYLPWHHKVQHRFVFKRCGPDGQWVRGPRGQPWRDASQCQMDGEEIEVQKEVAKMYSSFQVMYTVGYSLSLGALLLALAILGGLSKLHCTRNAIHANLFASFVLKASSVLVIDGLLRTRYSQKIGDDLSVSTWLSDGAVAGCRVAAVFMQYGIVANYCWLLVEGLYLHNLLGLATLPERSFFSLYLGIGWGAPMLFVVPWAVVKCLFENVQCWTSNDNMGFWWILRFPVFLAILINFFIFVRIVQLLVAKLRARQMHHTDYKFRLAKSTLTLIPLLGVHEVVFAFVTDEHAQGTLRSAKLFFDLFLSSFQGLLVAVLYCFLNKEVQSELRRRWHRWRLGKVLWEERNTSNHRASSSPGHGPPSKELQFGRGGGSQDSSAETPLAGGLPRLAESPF

Row | Binder | cAMP Rel. A (%) against human GCG, human GCG R cells | cAMP EC50, HEK-293 cells stably overexpressing human GCG R
21 | B1 | 211% | –
22 | B2 | 65.5% | 0.087 nM
23 | B3 | 70.4% | 0.081 nM
24 | B4 | 34.1% | 0.167 nM
25 | B5 | 335% | 0.017 nM
26 | B6 | 36.8% | 0.155 nM
27 | B7 | 150% | 0.038 nM
28 | B8 | 127% | –
29 | B9 | 37.2% | 0.153 nM
30 | B10 | 69.5% | 0.082 nM
